Laboratory results: US20050064518A1 (PURDUE PHARMA L P, published 2005)

T1: O772P 3-repeat TM on transfected NIH/3T3 cells (human)
T1 construct: also called NIH/3T3 O772P 3-repeat
T1 chain: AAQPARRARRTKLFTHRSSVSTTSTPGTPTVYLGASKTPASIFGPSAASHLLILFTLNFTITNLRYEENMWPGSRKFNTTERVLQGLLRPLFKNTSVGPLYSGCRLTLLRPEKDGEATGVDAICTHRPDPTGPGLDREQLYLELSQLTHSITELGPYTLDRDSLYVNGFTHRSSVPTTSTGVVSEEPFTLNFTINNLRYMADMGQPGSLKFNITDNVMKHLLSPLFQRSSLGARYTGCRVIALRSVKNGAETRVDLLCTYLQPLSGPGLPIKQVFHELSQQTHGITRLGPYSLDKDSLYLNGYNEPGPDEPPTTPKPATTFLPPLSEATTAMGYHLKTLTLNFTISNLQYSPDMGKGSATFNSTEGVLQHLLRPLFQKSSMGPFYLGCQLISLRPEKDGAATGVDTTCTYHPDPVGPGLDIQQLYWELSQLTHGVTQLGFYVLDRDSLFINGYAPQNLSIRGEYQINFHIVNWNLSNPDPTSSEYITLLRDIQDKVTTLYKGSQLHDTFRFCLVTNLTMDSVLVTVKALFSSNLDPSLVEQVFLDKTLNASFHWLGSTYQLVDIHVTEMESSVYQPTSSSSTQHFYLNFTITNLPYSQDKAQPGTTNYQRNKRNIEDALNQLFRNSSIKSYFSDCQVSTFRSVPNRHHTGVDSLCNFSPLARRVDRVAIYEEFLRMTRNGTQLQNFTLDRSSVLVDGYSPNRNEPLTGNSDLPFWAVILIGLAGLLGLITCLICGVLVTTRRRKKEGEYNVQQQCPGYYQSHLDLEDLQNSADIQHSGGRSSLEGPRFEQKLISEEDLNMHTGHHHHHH

B1: O772P 3-repeat recombinant protein (other)
chain: AAQPARRARRTKLFTHRSSVSTTSTPGTPTVYLGASKTPASIFGPSAASHLLILFTLNFTITNLRYEENMWPGSRKFNTTERVLQGLLRPLFKNTSVGPLYSGCRLTLLRPEKDGEATGVDAICTHRPDPTGPGLDREQLYLELSQLTHSITELGPYTLDRDSLYVNGFTHRSSVPTTSTGVVSEEPFTLNFTINNLRYMADMGQPGSLKFNITDNVMKHLLSPLFQRSSLGARYTGCRVIALRSVKNGAETRVDLLCTYLQPLSGPGLPIKQVFHELSQQTHGITRLGPYSLDKDSLYLNGYNEPGPDEPPTTPKPATTFLPPLSEATTAMGYHLKTLTLNFTISNLQYSPDMGKGSATFNSTEGVLQHLLRPLFQKSSMGPFYLGCQLISLRPEKDGAATGVDTTCTYHPDPVGPGLDIQQLYWELSQLTHGVTQLGFYVLDRDSLFINGYAPQNLSIRGEYQINFHIVNWNLSNPDPTSSEYITLLRDIQDKVTTLYKGSQLHDTFRFCLVTNLTMDSVLVTVKALFSSNLDPSLVEQVFLDKTLNASFHWLGSTYQLVDIHVTEMESSVYQPTSSSSTQHFYLNFTITNLPYSQDKAQPGTTNYQRNKRNIEDALNQLFRNSSIKSYFSDCQVSTFRSVPNRHHTGVDSLCNFSPLARRVDRVAIYEEFLRMTRNGTQLQNFTLDRSSVLVDGYSPNRNEPLTGNSADIQHSGGRSSLEGPRFEQKLISEEDLNMHTGHHHHHH
notes: Repeats are residues 14-452 of the entry
B2: monoclonal antibody 776.1 (antibody, V domains shown)
VH: EVQLQQSGPELVKPGASVKISCKASGYTFTDYNIHWVKQSHGKILEWIGYIYPYNGVSDYNQNFKSKATLIVDNSSNTAYMELRSLTSEDSAVYYCARWDFGSGYYFDYWGQGTTLTVSS
VL: QIVLSQSPAILFASPGETVTMTCRASSSVIYMCWNQQKPGSSPKPWIYGTSTLASGVPTRFSGSGSGTSYSLTISRVEAEDAATYYCQQWSSNPFTFGSGTKLEI
B3: OC125 (antibody)
chain 1: QVQLQESGPELVKPGASVKISCKASGYTFTDYNMHWVKQSHGKSLEWIGYIYPYNGDTGYNQKFRNKASLTVDTSSSTAYMELRSLTSEDSAVYYWARSGGFWYFDVWGQGGTTVTVSS
chain 2: DIQMTQSPAILSASPGEKVTMTCRATPSVSYMHWYQQKPGSSPKPLIYTTSNLASGVPARFSGGGSGTSYSLTVSRVEVEDAATYYCQQWSRSPPTFGAGTKLEIK

Tests used:
[1] = molecular target: B1; assay: BIAcore SPR, O772P 3-repeat immobilized, mAb injected
Protocol: A […] BIAcore biosensor chip was docked into the BIAcore X instrument and activated with 55 μl of 1:1 NHS/EDC at room temperature. O772P 3-repeat region protein and BSA at 10 μg/ml in 0.05 M acetate buffer, pH 4.5, were immobilized onto the flow cell (FC) 1 and FC2 of the activated chip, respectively, at a flow rate of 5 μl/min to achieve a resonance response of 1000-2000 RU. The chip was then blocked by injection of 55 μl of ethanolamine-HCl, pH 8.5, and followed with washing 5 times with 50 mM NaOH-1 M NaCl. To measure the binding of anti-0722P mAbs to the O772P 3-repeat region immobilized to the chip, 30 μl of anti-0722P mAbs at varying concentrations in BIAcore running buffer (HBS-EP, Cat. #1001-080, BIAcore, Piscataway, N.J.) were injected over the sensor surface at a flow rate of 5 μl/min. Following completion of the injection phase, dissociation was monitored in BIAcore running buffer at the same flow rate for 360 seconds. The surface was regenerated between injections using 30 μl of 50 mM NaOH-1 M NaCl. Individual sensorgrams were analyzed using BIAevaluation.

[2] = molecular target: B3; assay: ELISA competition: soluble O772P 3-repeat at 10x w/w excess against antibody binding to plate-bound O772P 3-repeat
Protocol: (§1) On the next day, the plates were washed with 200 μl 1×PBST (1× phosphate-buffered saline (PBS), 0.05% Tween 20) three times and blocked with 100 μl of 1×PBST containing 1% bovine serum albumin (BSA) for 2 hours at 37° C. […] After 1 hour incubation at 37° C., the plates were then washed with 1×PBST three times. For signal detection, 100 μl of HRP-conjugated sheep anti-mouse IgG (1:2000 dilution into 1×PBST+1% BSA, Amersham Biosciences) was added to each well and incubated for 1 hour at 37° C. The plates were washed again with 1×PBST three times. Finally, 100 μl¹ of a mixture of TMB substrate and H₂O₂ (1:1 ratio, KPL) was added into each well and the absorbance was measured at 405 nm with a plate reader (Molecular Devices Corp., Sunnyvale, Calif.). The assay was done in triplicate for each selected antibody and average values were calculated and presented. The percent inhibition compared to no competition was calculated for individual antibodies based on average values. Controls for blank and individual reagents were also included in each experiment.

[3] = molecular target: B2; assay: as above
Protocol: as §1

[4] = molecular target: T2, monoclonal antibody 117.1; assay: as above
T2 construct: Murine hybridoma antibody
T2 sequence (VH, as listed by the source, chain 1 of 2): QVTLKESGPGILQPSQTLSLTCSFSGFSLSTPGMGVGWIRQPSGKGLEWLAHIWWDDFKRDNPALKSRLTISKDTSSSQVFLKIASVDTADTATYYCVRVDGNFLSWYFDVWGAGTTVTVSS
T2 sequence (VL, as listed by the source, chain 2 of 2): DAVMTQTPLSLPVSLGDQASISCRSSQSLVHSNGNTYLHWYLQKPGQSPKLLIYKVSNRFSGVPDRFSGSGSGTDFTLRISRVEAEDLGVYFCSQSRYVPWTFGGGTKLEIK
Protocol: as §1

[5] = molecular target: T3, monoclonal antibody 368.1; assay: as above
T3 construct: Murine hybridoma antibody
T3 sequence (VH, as listed by the source, chain 1 of 2): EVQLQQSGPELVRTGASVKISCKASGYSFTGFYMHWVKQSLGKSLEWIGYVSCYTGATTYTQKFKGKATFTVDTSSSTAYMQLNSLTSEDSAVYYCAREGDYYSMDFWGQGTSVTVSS
T3 sequence (VL, as listed by the source, chain 2 of 2): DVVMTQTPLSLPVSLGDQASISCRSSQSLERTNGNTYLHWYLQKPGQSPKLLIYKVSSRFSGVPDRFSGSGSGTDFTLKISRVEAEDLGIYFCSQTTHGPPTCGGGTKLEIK
Protocol: as §1

[6] = molecular target: T4, monoclonal antibody 501.1; assay: as above
T4 construct: Murine hybridoma antibody
T4 sequence (VH, as listed by the source, chain 1 of 2): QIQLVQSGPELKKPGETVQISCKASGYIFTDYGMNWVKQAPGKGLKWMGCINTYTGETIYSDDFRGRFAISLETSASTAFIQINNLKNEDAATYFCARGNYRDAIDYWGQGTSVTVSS
T4 sequence (VL, as listed by the source, chain 2 of 2): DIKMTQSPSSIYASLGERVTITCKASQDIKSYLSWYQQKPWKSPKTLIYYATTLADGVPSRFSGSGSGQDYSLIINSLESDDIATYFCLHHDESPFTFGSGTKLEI
Protocol: as §1

[7] = molecular target: B1; assay: ELISA competition, plate-bound O772P 3-repeat; competitor shed CA 125/O772P
Protocol: as §1

[8] = molecular target: B1; assay: ELISA competition, plate-bound O772P 3-repeat; competitor soluble O772P 3-repeat
Protocol: as §1

[9] = molecular target: T5, CA 125/O772P on OVCAR-3 cells (human, UniProt Q8WXI7 1-14507); assay: flow cytometry, OVCAR-3 cells; Ab 2 µg/ml
T5 construct: whole, on cells

[10] = molecular target: T1, O772P 3-repeat TM on transfected …; assay: flow cytometry, NIH/3T3 cells expressing O772P 3-repeat TM; Ab 2 µg/ml
[11] = molecular target: B1; assay: ELISA competition, plate-bound O772P 3-repeat; no competitor
Protocol: as §1

[12] = molecular target: B1; assay: ELISA, plate-bound O772P 3-repeat
Protocol: On the next day, the plates were washed with 200 μl 1×PBST (1× phosphate-buffered saline (PBS), 0.05% Tween 20) three times and blocked with 100 μl of 1×PBST containing 1% bovine serum albumin (BSA) for 2 hours at 37° C. […] After 1 hour incubation at 37° C., the plates were then washed with 1×PBST three times. For signal detection, 100 μl of HRP (horseradish peroxidase)-conjugated sheep anti-mouse IgG (1:2000 dilution into 1×PBST+1% BSA; Amersham Biosciences) was added to each well and incubated for 1 hour at 37° C. The plates were again washed three times with 1×PBST. Finally, 100 μl¹ of a mixture of TMB (3,3′, 5,5′-tetramethylbenzidine) substrate and H₂O₂ (1:1 ratio, KPL Kirkguard Perry Laboratories) was added into each well and after a 5 minute incubation, the absorbance was measured at 405 nm with a plate reader (Molecular Devices Corp., Sunnyvale, Calif.). The assay was done in triplicate for each selected O772P hybridoma-produced antibody and data was collected and analyzed as a kinetic assay, measured over a 5 minute time period. Average values were calculated and presented. Controls for blank and individual reagents were also included in each experiment.

| Binder | Kd [1] [nM] | absorbance w/shed CA 125/O772P competitor (25-fold w/w excess) [7] [OD] | absorbance w/O772P 3-repeat competitor (10 x w/w excess) [8] [OD] | absorbance [11] [OD] | absorbance (OD) [12] [OD] | absorbance (OD)/µg Ab [12] [OD/µg Ab] | also measured |
| --- | --- | --- | --- | --- | --- | --- | --- |
| monoclonal antibody 725.1 (antibody, V domains shown, Murine hybridoma antibody; also called hybridoma 725.1 (ATCC PTA-5124)) VH: QIQLVQSGPELKKPGETVKISCKASGYSFTNYGMNWVKQAPGKGLKWMGWINAYIGEPTYADDFKGRFAFSLEASTHTAYLQINSLKSEDTATYFCASGGNSLDFWGQGTTLTVSS VL: QIILSQSPAILSASPGEKVTMTCRASSSVSSIHWYQQKPESSPKPWIYATSNLASGVPVRFSGSGSGTSYTLTISRMEAADAATYYCQQWSIDPATFGGGTKLEI | 2.6 |  |  |  |  |  |  |
| B1 |  |  |  |  |  |  | percent inhibition of binding [2]: 99%; percent inhibition of binding [3]: 96%; percent inhibition of binding [4]: 94%; percent inhibition of binding [5]: 30%; percent inhibition of binding [6]: 96% |
| B2 | 0.4 | 0.977 | 0.077 | 1.18 | 1.18 | 29 | % positive cells [9]: 94%; % positive cells [10]: 86% |
| B3 | 4 | 0.074 | 0.047 | 0.73 | 0.73 | 18 |  |
| monoclonal antibody 16H9 (antibody, V domains shown, Murine hybridoma antibody; also called hybridoma 16H9 (ATCC PTA-5108)) VH: EVQLQQSGAELVKPGASVKLSCTASGFNIKDTYMHWVKQRPEQGLEWIGRIDPANGNTKYDPKFQGKATITADTSSNTAYVQLSSLTSEDTAVYYCASSDIYYGNPGGFAYWGQGTLVTVSA VL: QIVLTQSPAIMSASLGERVTMTCTASSSVSSSYLHWYQQKPGSSPKLWIYSTSNLASGVPARFSGSGSGTSYSLTISSMEAEDAATYYCHQYHRSPFTFGSGTKLEI | 3.9 |  |  |  |  |  |  |
